According to publication PMC7505961:
One block for each substance: values may come before it.

How the values were obtained:
[1] = tested on: cGAS (human); test: EMSA; details: 5 mM Mg2+, 20 mM Tris-HCl pH 7.6, 60 mM NaCl, 5 mM MgCl2, 10 ul, 30 min on ice, 80 nM (145/185) or 10 nM (2450/oligo) substrate, 1.5% agarose, 0.2x TBE
[2] = target: Oligonucleosomes (2,450 bp dsDNA reconstituted with recombinant histone octamers); test: native gel or EMSA; FAM-labelled nucleosome (0.8 pmol; oligonucleosomes 0.1 pmol) mixed with different amounts of cGAS in 20 mM Tris-HCl pH 7.6, 60 mM NaCl, 5 mM MgCl2, total volume 10 ul; on ice 30 min; 1.5% agarose gel, 0.2x TBE; Kd from percent bound nucleosome against cGAS concentration
[3] = target: 185-nucleosome (185 bp dsDNA, Widom 601 extended by 20 bp on both ends, with recombinant histone octamer); test: as above
[4] = target: 145-nucleosome ("601" nucleosome core particle: 145 bp Widom 601 DNA with recombinant histone octamer); test: as above
[5] = target: 185-nucleosome (185 bp dsDNA, Widom 601 extended by 20 bp on both ends, with recombinant histone octamer)
[6] = target: 145-nucleosome ("601" nucleosome core particle: 145 bp Widom 601 DNA with recombinant histone octamer)

Substance: 2,450-dsDNA
- Kd [1]: 68 nM

Substance: 145-dsDNA
- Kd [1]: 350 nM

Substance: 145-nucleosome
- Kd [1]: 67 nM

Substance: 145-tailless nucleosome
- Kd ([1]; tailless histones: H4 del1-20, H3 del1-37, H2A del1-15, H2B del1-31): 79 nM

Substance: 185-dsDNA
- Kd [1]: 394 nM

Substance: 185-nucleosome
- Kd [1]: 172 nM

Substance: Oligonucleosomes
- Kd [1]: 66 nM

- Kd [2]: 66 nM
- Kd [3]: 172 nM
- Kd [4]: 67 nM
- amount of cGAMP after 3 h incubation with cGAS, ATP and GTP (UPLC-MS/MS), against that induced by dsDNA (% of that induced by dsDNA) [5]: 15
- amount of cGAMP after 3 h incubation with cGAS, ATP and GTP (UPLC-MS/MS), against that induced by dsDNA (% of that induced by dsDNA) [6]: 15
- initial velocity of cGAMP generation in vitro (UPLC-MS/MS; 2 uM cGAS, ATP, GTP, 37 °C), against that induced by 145-dsDNA (ratio to 145-dsDNA) [6]: 0.1
Substance: human cGAS (cGMP-AMP synthase) (from UniProt Q8N884 1-522) (enzyme)
